Results from patent US20200216495A1 (ADRX, published 2020).
“And” between values parts separate entries of the source, which are not always exact repeats. Identical values can stand only once. Square brackets hold non-standard residues; d marks the D form. Ends that are not written are not given here.

B1: fklklrhw (PEPTIDE ID NO: 125) (peptide)
peptide: [dF][dK][dL][dK][dL][dR][dH][dW]
B2: wrlkvrwl (PEPTIDE ID NO: 197) (peptide)
peptide: [dW][dR][dL][dK][dV][dR][dW][dL]
B3: wkvkiqyh (PEPTIDE ID NO: 100) (peptide)
peptide: [dW][dK][dV][dK][dI][dQ][dY][dH]
B4: ywrlkvrw (PEPTIDE ID NO: 268) (peptide)
peptide: [dY][dW][dR][dL][dK][dV][dR][dW]
B5: vrwwklrw (PEPTIDE ID NO: 196) (peptide)
peptide: [dV][dR][dW][dW][dK][dL][dR][dW]
B6: hlkirihy (PEPTIDE ID NO: 259) (peptide)
peptide: [dH][dL][dK][dI][dR][dI][dH][dY]
B7: lkvrwwwr (PEPTIDE ID NO: 199) (peptide)
peptide: [dL][dK][dV][dR][dW][dW][dW][dR]
B8: rlrirw (PEPTIDE ID NO: 27) (peptide)
peptide: [dR][dL][dR][dI][dR][dW]
B9: fwlklrwf (PEPTIDE ID NO: 15) (peptide)
peptide: [dF][dW][dL][dK][dL][dR][dW][dF]
B10: rwrwrw (PEPTIDE ID NO: 17) (peptide)
peptide: [dR][dW][dR][dW][dR][dW]
B11: hwrlkvrw (PEPTIDE ID NO: 266) (peptide)
peptide: [dH][dW][dR][dL][dK][dV][dR][dW]
B12: lkiqihy (PEPTIDE ID NO: 285) (peptide)
peptide: [dL][dK][dI][dQ][dI][dH][dY]
B13: fkikikw (PEPTIDE ID NO: 60) (peptide)
peptide: [dF][dK][dI][dK][dI][dK][dW]
modifications: not fully specified; printed as fkikikw
B14: wlkirihy (PEPTIDE ID NO: 198) (peptide)
peptide: [dW][dL][dK][dI][dR][dI][dH][dY]
B15: wrlkvrew (PEPTIDE ID NO: 284) (peptide)
peptide: [dW][dR][dL][dK][dV][dR][dE][dW]
B16: fhirirhw (PEPTIDE ID NO: 138) (peptide)
peptide: [dF][dH][dI][dR][dI][dR][dH][dW]
B17: wrlkfrw (PEPTIDE ID NO: 263) (peptide)
peptide: [dW][dR][dL][dK][dF][dR][dW]
B18: wkvwvrgw (PEPTIDE ID NO: 93) (peptide)
peptide: [dW][dK][dV][dW][dV][dR]G[dW]
modifications: not fully specified (residue 7); printed as wkvwvrgw
B19: frvrirhw (PEPTIDE ID NO: 118) (peptide)
peptide: [dF][dR][dV][dR][dI][dR][dH][dW]
B20: hrlkvrww (PEPTIDE ID NO: 265) (peptide)
peptide: [dH][dR][dL][dK][dV][dR][dW][dW]
B21: wrlrihww (PEPTIDE ID NO: 20) (peptide)
peptide: [dW][dR][dL][dR][dI][dH][dW][dW]
B22: wrlkvrwe (PEPTIDE ID NO: 275) (peptide)
peptide: [dW][dR][dL][dK][dV][dR][dW][dE]
B23: rikirw (PEPTIDE ID NO: 26) (peptide)
peptide: [dR][dI][dK][dI][dR][dW]
B24: lkirlhhw (PEPTIDE ID NO: 143) (peptide)
peptide: [dL][dK][dI][dR][dL][dH][dH][dW]
B25: lkihirhw (PEPTIDE ID NO: 148) (peptide)
peptide: [dL][dK][dI][dH][dI][dR][dH][dW]
B26: wrlrlrw (PEPTIDE ID NO: 200) (peptide)
peptide: [dW][dR][dL][dR][dL][dR][dW]
B27: wrlkvrrw (PEPTIDE ID NO: 278) (peptide)
peptide: [dW][dR][dL][dK][dV][dR][dR][dW]
B28: friklrw (PEPTIDE ID NO: 47) (peptide)
peptide: [dF][dR][dI][dK][dL][dR][dW]
B29: wrlkvqw (PEPTIDE ID NO: 281) (peptide)
peptide: [dW][dR][dL][dK][dV][dQ][dW]
B30: wrlwihw (PEPTIDE ID NO: 428) (peptide)
peptide: [dW][dR][dL][dW][dI][dH][dW]
B31: tkirihy (PEPTIDE ID NO: 283) (peptide)
peptide: [dT][dK][dI][dR][dI][dH][dY]
B32: wrlrmhw (PEPTIDE ID NO: 260) (peptide)
peptide: [dW][dR][dL][dR][dM][dH][dW]
B33: lkiriyy (PEPTIDE ID NO: 277) (peptide)
peptide: [dL][dK][dI][dR][dI][dY][dY]
B34: klklrwf (PEPTIDE ID NO: 438) (peptide)
peptide: [dK][dL][dK][dL][dR][dW][dF]
B35: wrlqvrw (PEPTIDE ID NO: 280) (peptide)
peptide: [dW][dR][dL][dQ][dV][dR][dW]
B36: ririrw (PEPTIDE ID NO: 75) (peptide)
peptide: [dR][dI][dR][dI][dR][dW]
B37: rtlkivwr (PEPTIDE ID NO: 22) (peptide)
peptide: [dR][dT][dL][dK][dI][dV][dW][dR]
B38: yrvriewl (PEPTIDE ID NO: 159) (peptide)
peptide: [dY][dR][dV][dR][dI][dE][dW][dL]
B39: wrlkvrww (PEPTIDE ID NO: 3) (peptide)
peptide: [dW][dR][dL][dK][dV][dR][dW][dW]
B40: welkvrww (PEPTIDE ID NO: 264) (peptide)
peptide: [dW][dE][dL][dK][dV][dR][dW][dW]
B41: wrlriaw (PEPTIDE ID NO: 272) (peptide)
peptide: [dW][dR][dL][dR][dI][dA][dW]
B42: lkirihrh (PEPTIDE ID NO: 274) (peptide)
peptide: [dL][dK][dI][dR][dI][dH][dR][dH]
B43: wkvwvryw (PEPTIDE ID NO: 92) (peptide)
peptide: [dW][dK][dV][dW][dV][dR][dY][dW]
B44: wrtkvrw (PEPTIDE ID NO: 276) (peptide)
peptide: [dW][dR][dT][dK][dV][dR][dW]
B45: fkihikhy (PEPTIDE ID NO: 127) (peptide)
peptide: [dF][dK][dI][dH][dI][dK][dH][dY]
B46: lkirihya (PEPTIDE ID NO: 269) (peptide)
peptide: [dL][dK][dI][dR][dI][dH][dY][dA]
B47: frirlrw (PEPTIDE ID NO: 56) (peptide)
peptide: [dF][dR][dI][dR][dL][dR][dW]
B48: fwrlkvrw (PEPTIDE ID NO: 261) (peptide)
peptide: [dF][dW][dR][dL][dK][dV][dR][dW]
B49: lkiriay (PEPTIDE ID NO: 271) (peptide)
peptide: [dL][dK][dI][dR][dI][dA][dY]
B50: wqlkvrw (PEPTIDE ID NO: 273) (peptide)
peptide: [dW][dQ][dL][dK][dV][dR][dW]
B51: lhiklrwh (PEPTIDE ID NO: 151) (peptide)
peptide: [dL][dH][dI][dK][dL][dR][dW][dH]
B52: wrvqvrw (PEPTIDE ID NO: 102) (peptide)
peptide: [dW][dR][dV][dQ][dV][dR][dW]
B53: lririrfh (PEPTIDE ID NO: 152) (peptide)
peptide: [dL][dR][dI][dR][dI][dR][dF][dH]
B54: fklhlrhw (PEPTIDE ID NO: 126) (peptide)
peptide: [dF][dK][dL][dH][dL][dR][dH][dW]
B55: frlriww (PEPTIDE ID NO: 423) (peptide)
peptide: [dF][dR][dL][dR][dI][dW][dW]
B56: eirlhw (PEPTIDE ID NO: 74) (peptide)
peptide: [dE][dI][dR][dL][dH][dW]
B57: wrlriht (PEPTIDE ID NO: 262) (peptide)
peptide: [dW][dR][dL][dR][dI][dH][dT]
B58: lrlhlrhw (PEPTIDE ID NO: 149) (peptide)
peptide: [dL][dR][dL][dH][dL][dR][dH][dW]
B59: whlrirw (PEPTIDE ID NO: 19) (peptide)
peptide: [dW][dH][dL][dR][dI][dR][dW]
B60: fkihlrhw (PEPTIDE ID NO: 124) (peptide)
peptide: [dF][dK][dI][dH][dL][dR][dH][dW]

These binders were tested against Tau40 P301L protein (human) (assay: cell-based or functional assay).

| Binder | IC50, Tau40 assay (ThT) |
| --- | --- |
| B1 | 1340 nM and 1360 nM |
| B2 | 680 nM |
| B3 | 1560 nM and 1610 nM |
| B4 | 1430 nM |
| B5 | 680 nM |
| B6 | 1250 nM |
| B7 | 700 nM |
| B8 | 1610 nM |
| B9 | 1380 nM and 2080 nM |
| B10 | 1460 nM |
| B11 | 1420 nM |
| B12 | 1640 nM |
| B13 | 1570 nM and 1650 nM |
| B14 | 690 nM |
| B15 | 1640 nM |
| B16 | 1260 nM and 1310 nM |
| B17 | 1360 nM |
| B18 | 1270 nM and 990 nM |
| B19 | 1310 nM |
| B20 | 1410 nM |

| Binder | IC50, Tau40 assay (ThT) |
| --- | --- |
| B21 | 1290 nM and 1110 nM |
| B22 | 1520 nM |
| B23 | 1400 nM and 1490 nM |
| B24 | 1420 nM and 1070 nM |
| B25 | 1290 nM and 1390 nM |
| B26 | 700 nM |
| B27 | 1580 nM |
| B28 | 1370 nM and 1460 nM |
| B29 | 1620 nM |
| B30 | 1290 nM |
| B31 | 1630 nM |
| B32 | 1280 nM |
| B33 | 1570 nM |
| B34 | 1670 nM |
| B35 | 1600 nM |
| B36 | 1470 nM and 710 nM |
| B37 | 1670 nM |
| B38 | 1270 nM and 1430 nM |
| B39 | 1610 nM and 750 nM |
| B40 | 1390 nM |

| Binder | IC50, Tau40 assay (ThT) |
| --- | --- |
| B41 | 1490 nM |
| B42 | 1510 nM |
| B43 | 700 nM and 810 nM |
| B44 | 1560 nM |
| B45 | 1650 nM and 1790 nM |
| B46 | 1450 nM |
| B47 | 1460 nM |
| B48 | 1320 nM |
| B49 | 1480 nM |
| B50 | 1490 nM |
| B51 | 1650 nM and 1830 nM |
| B52 | 1540 nM and 1570 nM |
| B53 | 1410 nM and 1870 nM |
| B54 | 1390 nM and 1510 nM |
| B55 | 1410 nM |
| B56 | 1540 nM |
| B57 | 1330 nM |
| B58 | 1640 nM and 2060 nM |
| B59 | 1540 nM and 1630 nM |
| B60 | 1340 nM |
